Assay results from US20140051120A1 (Genentech, published 2014).
Values joined by “and” are separate entries in the source; they are usually repeats but may differ in a detail not shown here. Equal values may be shown once. Read-outs that look alike come from different tables or passages of the source.

Key:
[1] = target: T1, truncated human EGFL7 (residues 1-182) (human, UniProt Q9UHF1 24-182); assay: phage ELISA on truncated huEGFL7 immobilized on a microtiter plate
T1 construct: Expressed in CHO cells; The range as printed starts at Met 1; also called truncated EGFL7; truncated huEGFL7
T1 chain: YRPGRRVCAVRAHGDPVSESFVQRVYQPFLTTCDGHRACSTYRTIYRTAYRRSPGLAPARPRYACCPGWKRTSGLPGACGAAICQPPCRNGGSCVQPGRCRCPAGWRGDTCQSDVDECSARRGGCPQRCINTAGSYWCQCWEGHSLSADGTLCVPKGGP

[2] = target: T2, mouse EGFL7 (mEGFL7-CB-His) (mouse, UniProt Q9QXT5 22-275); assay: SPR (Biacore), IgG over immobilized mEGFL7-CB at 37 C;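 note: IgG injected as twofold series from 0.5 to 1000 nM, 3 min association and 3.5 min dissociation, reference flow cell subtracted, kinetics fitted to 1:1 Langmuir model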
T2 sequence: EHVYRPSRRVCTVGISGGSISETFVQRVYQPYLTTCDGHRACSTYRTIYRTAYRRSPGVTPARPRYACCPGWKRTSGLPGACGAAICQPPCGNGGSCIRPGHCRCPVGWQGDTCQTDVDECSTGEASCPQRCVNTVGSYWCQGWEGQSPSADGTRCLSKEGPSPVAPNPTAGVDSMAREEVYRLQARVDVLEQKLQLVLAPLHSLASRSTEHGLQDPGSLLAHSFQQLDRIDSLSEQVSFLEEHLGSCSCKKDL
Protocol: Affinity determinations were performed by surface plasmon resonance using a BIAcore™-2000. Truncated EGFL7 or p5 peptide was immobilized (approximately 50-200 RU) in 10 mM sodium acetate pH 4.8 on a CMS sensor chip. Purified IgG variants were injected (using a 2-fold serial dilution of 0.5 to 1000 nM in PBST) at a flow rate of 30 μL/min. Each sample was analyzed with 3-minute association and 3.5-minute disassociation. After each injection the chip was regenerated using 10 mM glycine pH 1.7.
Binding response was corrected by subtracting a control flow cell from IgG variant flow cells. A 1:1 Languir model of simultaneous fitting of kₒₙ and koff was used for kinetics analysis.

p5 peptide of EGFL7 [3] = target: T3, p5 peptide of EGFL7 (human); assay: SPR (Biacore), IgG over immobilized P5 peptide at 37 C, n = 3
T3 construct: also called Peptide P5
T3 peptide: RACSTYRTIYRTA

[4] = target: T4, human EGFL7 (EGFL7-CB-His) (human, UniProt Q9UHF1 23-273, limits assumed); assay: cell-based or functional assay
T4 sequence: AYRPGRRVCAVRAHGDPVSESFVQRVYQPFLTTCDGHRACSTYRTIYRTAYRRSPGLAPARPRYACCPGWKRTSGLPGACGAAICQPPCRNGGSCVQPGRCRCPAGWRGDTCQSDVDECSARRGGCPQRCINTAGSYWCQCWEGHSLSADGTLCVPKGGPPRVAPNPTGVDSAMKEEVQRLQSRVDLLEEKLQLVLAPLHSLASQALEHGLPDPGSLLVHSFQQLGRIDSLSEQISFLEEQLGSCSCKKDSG

[5] = target: T1, truncated human EGFL7 (residues 1-182); assay: phage ELISA on truncated huEGFL7 immobilized on a microtiter plate
[6] = target: T2, mouse EGFL7 (mEGFL7-CB-His); assay: cell-based or functional assay
p5 peptide of EGFL7 [7] = target: T3, p5 peptide of EGFL7; assay: SPR (Biacore), IgG over immobilized P5 peptide at 37 C;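 note: IgG variants injected at 0.5–1000 nM (2-fold series), 3 min association and 3.5 min dissociation, reference flow cell subtracted, kinetics fitted with a 1:1 Langmuir model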

B1: phage displaying 4F11.v1 Fab (Fab, V domains shown)
VH: EVQLVESGGGLVQPGGSLRLSCAASGHTFTTYGMSWVRQAPGKGLEWVGWINTHSGVPTYADDFKGRFTISRDNSKNTLYLQMNSLRAEDTAVYYCARLGSSAVDYWGQGTLVTVSS
VL: DIQMTQSPSSLSASVGDRVTITCKASQSVDYDGDSYMSWYQQKPGKAPKLLIYGASNLESGVPSRFSGSGSGTDFTLTISSLQPEDFATYYCQQNNEDPYTFGQGTKVEIKR
notes: Monovalent Fab-g3 display on M13 phage; heavy chain VH-CH1 fused to minor coat protein P3; also called 4F11.v1 phage; 4F11-graft Fab on phage
[1]
  binding result: binds

B2: 18F7.v6 IgG (antibody, V domains shown)
VH: EVQLVESGGGLVQPGGSLRLSCAASGYTFIDYYMNWVRQAPGKGLEWVGDINLDNGGTHYNQKFKGRFTISRDKSKNTAYLQMNSLRAEDTAVYYCAREGVYHDYDDYAMDYWGQGTLVTVSS
VL: DIQMTQSPSSLSASVGDRVTITCRTSQSLVHINGITYLHWYQQKPGKAPKLLIYRVSNRFSGVPSRFSGSGSGTDFTLTISSLQPEDFATYYCGQSTHVPLTFGQGTKVEIKR
notes: IgG; also called hu18F7.v6
[2]
  Kd: 0.408 nM
  koff: 2.04e-05 s⁻¹
  kon: 50000 M⁻¹ s⁻¹
p5 peptide of EGFL7 [3]
  Kd: 3.21 nM
  koff: 0.000389 s⁻¹
  kon: 121000 M⁻¹ s⁻¹
[4]
  IC50, HUVEC adhesion [left panel]: 5.62 nM

B3: phage displaying 18F7-graft Fab (Fab, V domains shown)
VH: EVQLVESGGGLVQPGGSLRLSCAASGYTFIDYYMNWVRQAPGKGLEWVGDINLDNGGTHYNQKFKGRFTISRDNSKNTLYLQMNSLRAEDTAVYYCAREGVYHDYDDYAMDYWGQGTLVTVSS
VL: DIQMTQSPSSLSASVGDRVTITCRTSQSLVHINGITYLHWYQQKPGKAPKLLIYRVSNRFSGVPSRFSGSGSGTDFTLTISSLQPEDFATYYCSQSTHVPLTFGQGTKVEIKR
notes: Monovalent Fab-g3 display on M13 phage; heavy chain VH-CH1 fused to P3; also called 18F7-graft phage
[5]
  binding result: binds

B4: 18F7.v6K IgG (antibody, V domains shown)
VH: EVQLVESGGGLVQPGGSLRLSCAASGYTFIDYYMNWVRQAPGKGLEWVGDINLDNSGTHYNQKFKGRFTISRDKSKNTAYLQMNSLRAEDTAVYYCAREGVYHDYDDYAMDYWGQGTLVTVSS
VL: DIQMTQSPSSLSASVGDRVTITCRTSQSLVHINAITYLHWYQQKPGKAPKLLIYRVSNRFSGVPSRFSGSGSGTDFTLTISSLQPEDFATYYCGQSTHVPLTFGQGTKVEIKR
notes: IgG; also called hu18F7.v6k; h18F7.v6k
[2]
  Kd: 1.6 nM
  koff: 4.54e-05 s⁻¹
  kon: 28000 M⁻¹ s⁻¹
[6]
  IC50, HUVEC adhesion [right panel]: 6.37 µg/ml and 42 nM
p5 peptide of EGFL7 [7]
  Kd: 5.2 nM
  koff: 0.000662 s⁻¹
  kon: 127000 M⁻¹ s⁻¹
